Measurements reported in IntAct's records for PubMed 22265973.

B1: Synaptotagmin-2 (Rattus norvegicus (Rat)), P29101 (parent)
chain: MRNIFKRNQEPIVAPATTTATMPLAPAAPADNSTESTGTGESQEDMFAKLKDKFFNEINKIPLPPWALIAMAVVAGLLLLTCCFCICKKCCCKKKKNKKEKGKGMKNAMNMKDMKGGQDDDDAETGLTEGEGEGEEEKEPENLGKLQFSLDYDFQANQLTVGVLQAAELPALDMGGTSDPYVKVFLLPDKKKKYETKVHRKTLNPAFNETFTFKVPYQELGGKTLVMAIYDFDRFSKHDIIGEVKVPMNTVDLGQPIEEWRDLQGGEKEEPEKLGDICTSLRYVPTAGKLTVCILEAKNLKKMDVGGLSDPYVKIHLMQNGKRLKKKKTTVKKKTLNPYFNESFSFEIPFEQIQKVQVVVTVLDYDKLGKNEAIGKIFVGSNATGTELRHWSDMLANPRRPIAQWHSLKPEEEVDALLGKNK

Variants of: B1
Conditions: with bxb_clobo botB

Variant	effect of a mutation on the interaction
MRNIFKRNQEPIVAPATTTATMPLAPAAPADNSTESTGTGESQEDMFAKLKDKLFNEINKIPLPPWALIAMAVVAGLLLLTCCFCICKKCCCKKKKNKKEKGKGMKNAMNMKDMKGGQDDDDAETGLTEGEGEGEEEKEPENLGKLQFSLDYDFQANQLTVGVLQAAELPALDMGGTSDPYVKVFLLPDKKKKYETKVHRKTLNPAFNETFTFKVPYQELGGKTLVMAIYDFDRFSKHDIIGEVKVPMNTVDLGQPIEEWRDLQGGEKEEPEKLGDICTSLRYVPTAGKLTVCILEAKNLKKMDVGGLSDPYVKIHLMQNGKRLKKKKTTVKKKTLNPYFNESFSFEIPFEQIQKVQVVVTVLDYDKLGKNEAIGKIFVGSNATGTELRHWSDMLANPRRPIAQWHSLKPEEEVDALLGKNK [F54L]	disrupting interaction

Variants of: B1
Conditions: with bxb_clobo botB
Remark: another data set of the same source

Variant	effect of a mutation on the interaction
MRNIFKRNQEPIVAPATTTATMPLAPAAPADNSTESTGTGESQEDMFAKLKDKAFNEINKIPLPPWALIAMAVVAGLLLLTCCFCICKKCCCKKKKNKKEKGKGMKNAMNMKDMKGGQDDDDAETGLTEGEGEGEEEKEPENLGKLQFSLDYDFQANQLTVGVLQAAELPALDMGGTSDPYVKVFLLPDKKKKYETKVHRKTLNPAFNETFTFKVPYQELGGKTLVMAIYDFDRFSKHDIIGEVKVPMNTVDLGQPIEEWRDLQGGEKEEPEKLGDICTSLRYVPTAGKLTVCILEAKNLKKMDVGGLSDPYVKIHLMQNGKRLKKKKTTVKKKTLNPYFNESFSFEIPFEQIQKVQVVVTVLDYDKLGKNEAIGKIFVGSNATGTELRHWSDMLANPRRPIAQWHSLKPEEEVDALLGKNK [F54A]	disrupting interaction
